B1: Cytochrome c-551, P00099 (parent)
chain: MKPYALLSLLATGTLLAQGAWAEDPEVLFKNKGCVACHAIDTKMVGPAYKDVAAKFAGQAGAEAELAQRIKNGSQGVWGPIPMPPNAVSDDEAQTLAKWVLSQK

Variants of: B1
Settings: Pseudomonas aeruginosa (strain ATCC 15692 / DSM 22644 / CIP 104116 / JCM 14847 / LMG 12228 / 1C / PRS 101 / PAO1); pH 7; 10 °C; GdnHCl; Fluorescence; sodium phosphate 50 mM; reversible: yes; structure 451C; whole UniProt chain shown

For E92Q, the “ddG of mutation (higher = less stable)” value was -0.2 kcal/mol, the denaturant m value was 3.4 kcal/mol/M and the “denaturant midpoint (higher = more stable)” value was 1.8 M. The unfolding free energy was 6.3 kcal/mol.

In the case of E92V, the “ddG of mutation (higher = less stable)” value is reported as 0.3 kcal/mol, the denaturant m value is reported as 3.3 kcal/mol/M and the “denaturant midpoint (higher = more stable)” value is reported as 1.8 M. For the same variant, the unfolding free energy was 5.8 kcal/mol.
